Source: patent publication US20150232562A1 (Ablynx, published 2015)
Each block holds one binder with its values, some of them ahead of it.

How the values were obtained:
[1] = target: T1, recombinant human ErbB2/Fc chimera (human, UniProt P04626 23-652); assay: SPR (Biacore 3000), periplasmic extract over immobilised rhErbB2-Fc
T1 construct: bought from R&D Systems; also called rhErbB2-Fc; rhErb2-Fc; Fc part of the bought chimera not given; not described

[2] = target: T2, Epidermal Growth Factor Receptor 2 (HER2) (human, UniProt P04626 23-1255); assay: cell-based or functional assay
[3] = target: T3, extracellular domain of HER2 (HER2-ECD), Flag- and polyhistidine-tagged (human, UniProt P04626 23-652); assay: SPR, 1000 nM HER2-ECD over immobilised Nanobody (about 90 RU)
T3 construct: extracellular domain; made in HEK293T cells, purified by IMAC and SEC; also called ErbB2 ECD; not shown: N-terminal Flag tag after the Ig-kappa leader; C-terminal polyhistidine tag

[4] = target: T1, recombinant human ErbB2/Fc chimera; assay: SPR (Biacore 3000), purified Nanobody over immobilised rhErbB2-Fc
[5] = target: T1, recombinant human ErbB2/Fc chimera; assay: SPR (Biacore T100), Nanobody over immobilised rhErbB2-Fc
[6] = target: T3, extracellular domain of HER2 …; assay: SPR, 100 nM HER2-ECD over immobilised Nanobody (about 90 RU)
[7] = target: T1, recombinant human ErbB2/Fc chimera; assay: ELISA, coated ErbB2/Fc
[8] = target: T2, Epidermal Growth Factor Receptor 2 …; assay: flow cytometry on SKBR3 cells, periplasmic extract
[9] = target: T3, extracellular domain of HER2 …; assay: SPR, HER2-ECD over immobilised Nanobodies
[10] = target: T3, extracellular domain of HER2 …; assay: SPR, 1000 nM HER2-ECD over immobilised Nanobody; row label prints 5F7, table title, text and FIG. 19 say 47D5
[11] = target: T3, extracellular domain of HER2 …; assay: SPR, 100 nM HER2-ECD over immobilised Nanobody; row label prints 5F7, table title, text and FIG. 19 say 47D5

B2: 2D3 (VHH)
VHH: EVQLVESGGSLVQPGGSLRLSCAASGFTFDDYAMSWVRQVPGKGLEWVSSINWSGTHTDYADSVKGRFTISRNNANNTLYLQMNSLKSEDTAVYYCAKNWRDAGTTWFEKSGSAGQGTQVTVSS
notes: C-term myc-His6 tag; also called NB-2D3; Nb-2D3
koff [3]: 0.00151 s⁻¹
koff [4]: ~0.001 s⁻¹
Kd [5]: 1.09 nM
koff [5]: 0.00148 s⁻¹
kon [5]: 1.36e+06 M⁻¹ s⁻¹
koff [6]: 0.0021 s⁻¹
inhibition of SKBR3 cell proliferation ([3H]-thymidine), 50 nM Nanobody [2]: ~30%

B3: 27E7-35GS-2D3 (bispecific antibody)
chain: EVQLVESGGGLVQAGGSLRLSCAASGITFRRYDMGWYRQFPGKERELVATILSEGDTNYVDPVKGRFTISRDNAKNTVYLQMNDLKPEDTAVYYCNGVWRAIGRTYWGQGTQVTVSSGGGGSGGGGSGGGGSGGGGSGGGGSGGGGSGGGGSEVQLVESGGSLVQPGGSLRLSCAASGFTFDDYAMSWVRQVPGKGLEWVSSINWSGTHTDYADSVKGRFTISRNNANNTLYLQMNSLKSEDTAVYYCAKNWRDAGTTWFEKSGSAGQGTQVTVSS
notes: biparatopic Nanobody; C-term myc-His6 tag
koff [4]: ~0.0001 s⁻¹

B5: 2D3-35GS-47D5 (bispecific antibody)
chain: EVQLVESGGSLVQPGGSLRLSCAASGFTFDDYAMSWVRQVPGKGLEWVSSINWSGTHTDYADSVKGRFTISRNNANNTLYLQMNSLKSEDTAVYYCAKNWRDAGTTWFEKSGSAGQGTQVTVSSGGGGSGGGGSGGGGSGGGGSGGGGSGGGGSGGGGSEVQLVESGGGLVQPGGSLRLSCAASGSIFGFNDMAWYRQAPGKQRELVALISRVGVTSSADSVKGRFTISRVNAKDTVYLQMNSLKPEDTAVYYCYMDQRLDGSTLAYWGQGTQVTVSS
notes: biparatopic Nanobody; C-term myc-His6 tag; also called 2D3-47D5
fold lower koff than on each of the 2D3 and 47D5 surfaces [9]: 25 fold
koff [3]: 5.45e-05 s⁻¹
koff [6]: 8.07e-05 s⁻¹

B7: 27A3-35GS-2D3 (bispecific antibody)
chain: EVQLVESGGGLVQAGGSLSLSCVASGRFFSTRVMAWYRQTPGKQREFVASMRGSGSTNYADSVRGRFAISRDNAKNTVYLQMNTLKPEDTAVYYCRDINEDQWGQGTQVTVSSGGGGSGGGGSGGGGSGGGGSGGGGSGGGGSGGGGSEVQLVESGGSLVQPGGSLRLSCAASGFTFDDYAMSWVRQVPGKGLEWVSSINWSGTHTDYADSVKGRFTISRNNANNTLYLQMNSLKSEDTAVYYCAKNWRDAGTTWFEKSGSAGQGTQVTVSS
notes: as for B3
koff [4]: ~0.0001 s⁻¹

B8: 47D5 (VHH)
VHH: KVQLVESGGGLVQPGGSLRLSCAASGSIFGFNDMAWYRQAPGKQRELVALISRVGVTSSADSVKGRFTISRVNAKDTVYLQMNSLKPEDTAVYYCYMDQRLDGSTLAYWGQGTQVTVSS
notes: C-term myc-His6 tag; also called 47A8; 47A11
koff [10]: 0.00131 s⁻¹
koff [11]: 0.00256 s⁻¹
Kd [5]: 2.23 nM
koff [5]: 0.000862 s⁻¹
kon [5]: 386000 M⁻¹ s⁻¹

B9: DUMMY-35GS-2D3 (bispecific antibody)
chain: EVQLVESGGGLVQAGGSLRLSCAASGRTFRSYPMGWFRQAPGKEREFVASITGSGGSTYYADSVKGRFTISRDNAKNTVYLQMNSLRPEDTAVYSCAAYIRPDTYLSRDYRKYDYWGQGTQVTVSSGGGGSGGGGSGGGGSGGGGSGGGGSGGGGSGGGGSEVQLVESGGSLVQPGGSLRLSCAASGFTFDDYAMSWVRQVPGKGLEWVSSINWSGTHTDYADSVKGRFTISRNNANNTLYLQMNSLKSEDTAVYYCAKNWRDAGTTWFEKSGSAGQGTQVTVSS
notes: C-term myc-His6 tag; also called dummy-2D3; Dummy-2D3
koff [4]: ~0.001 s⁻¹
Kd [5]: 1.77 nM
koff [5]: 0.00113 s⁻¹
kon [5]: 1.16e+06 M⁻¹ s⁻¹

B12: 2A4 (VHH)
VHH: EVQLVESGGGLVQPGGSLRLSCAASGFIFDDYAMSWVRQAPGKGLEWVSAINWSGSHRNYADSVKGRFTISRDNAKKTVYLQMNSLQSEDTAVYYCGTGWQSTTKNQGYWGQGTQVTVSS
notes: C-term myc-His6 tag
koff [1]: 0.00205 s⁻¹
inhibition of SKBR3 cell proliferation ([3H]-thymidine), 50 nM Nanobody [2]: ~30%

Further lines, results first:

koff [1]: 0.00142 s⁻¹
inhibition of SKBR3 cell proliferation ([3H]-thymidine), 50 nM Nanobody [2]: ~18%
B1: 2A5 (VHH)
VHH: EVQLVESGGGLVQPGGSLRLSCATSGFTFDDYAMTWVRQAPGKGLEWVSSINWSGTHTDYTDSVKGRFTISRNNANNTLYLQMNSLKSEDTAVYYCAKNWGDAGTTWFEKSGSAGQGTQVTVSS
notes: C-term myc-His6 tag

binding result [7]: binds
binding result [8]: binds
B4: 2G4 (VHH)
VHH: EVQLVESGGGLVQAGGSLRLSCAASGNIFSHNAMGWYRQAPGKQRELVTYITINGIANYVDSVKGRFTISRDNTKNTMYLQMVSLKPEDTAVYYCNVGGREYSGVYYYREYWGQGTQVTVSS
notes: C-term myc-His6 tag

koff [1]: 0.00111 s⁻¹
inhibition of SKBR3 cell proliferation ([3H]-thymidine), 50 nM Nanobody [2]: ~30%
B6: 2C3 (VHH)
VHH: EVQLVESGGGLVQPGGSLRLSCVASGFSLDDYGMTWVRQAPGKGLEWVSSINWSGTHTDYADSVKGRFTISRDNAKNTLFLQMNSLRSEDTAVYYCNQGWKIVPTDRTGHGTQVTVSS
notes: C-term myc-His6 tag

binding result [7]: binds
binding result [8]: binds
B10: 2A1 (VHH)
VHH: EVQLVESGGGLVQAGGSLRLSCVASKITFRRYIMDWYRQAPGKQRELVASINSDGSTGYTDSVKGRFTISRDNTKNTLDLQMNSLKPEDTAVYYCHGRWLEIGAEYWGQGTQVTVSS
notes: C-term myc-His6 tag

binding result [7]: binds
binding result [8]: binds
B11: 2C5 (VHH)
VHH: EVQLVESGGGLVQAGGSLNLSCVASGIPFSTRTMAWYRQTPGKSRDWVATIRSGTPVYADSVKGRFTVSRDNAKNTLYLRMNSLKSEDSATYTCRAVNADIWGQGTQVTVSS
notes: C-term myc-His6 tag
